Measured values as given in patent US20170002075A1 (AbbVie / Abbott, published 2017).

How the values were obtained:
[1] = target: T1, recombinant human RAGE (plate coat of the competition ELISA of Example 1.4); test: competition ELISA on plates coated with recombinant human RAGE (2 µg/mL); competitor: biotinylated hybridoma-derived 11E6 (11E6-biotin), streptavidin-HRP, OD 450 nm; the unit comes from the axis 'Log MAbs (M)'
T1 construct: not shown: The carrier of the coated preparation, if it had one
T1 sequence (chain, as listed by the source limits assumed): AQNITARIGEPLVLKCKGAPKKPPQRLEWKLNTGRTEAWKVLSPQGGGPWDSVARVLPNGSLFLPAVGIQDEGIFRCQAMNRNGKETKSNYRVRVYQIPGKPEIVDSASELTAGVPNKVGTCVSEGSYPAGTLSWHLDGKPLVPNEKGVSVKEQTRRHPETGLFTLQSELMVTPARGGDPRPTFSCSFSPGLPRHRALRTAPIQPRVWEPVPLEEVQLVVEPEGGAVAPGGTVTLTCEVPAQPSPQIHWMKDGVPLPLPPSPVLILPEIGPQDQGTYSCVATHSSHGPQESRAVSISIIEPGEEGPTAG
Description: (§1) The purified chimeric anti-human RAGE monoclonal antibodies were tested for their ability to bind human RAGE in a competition ELISA. […] Equal volumes (50 μL) of each recombinant chimeric anti-human RAGE monoclonal antibodies or hybridoma-derived anti-human RAGE monoclonal antibodies and each corresponding biotinylated hybridoma-derived anti-RAGE mAbs were mixed. 50 μL of this mixture was then added to ELISA plates pre-coated with recombinant human RAGE at 2 μg/mL and incubated for 1.5 hours at room temperature. Wells were washed three times with PBS+0.05% Tween-20. Streptavidin HRP (1 mg/mL) was diluted 1:16000 in PBST+10% Superblock; 50 µL/well was added and the plates incubated for 1 hour at room temperature. Plates were washed 3 times with PBS+0.05% Tween-20. 50 µL of TMB solution (Sigma, St Louis, Mo.) was added to each well and incubated for 10 minutes at room temperature. The reaction was stopped by addition of IN sulphuric acid. Plates were read spectrophotometrically at a wavelength of 450 nm.

[2] = target: T2, hRAGE (1-331) / human sRAGE 1-331, V#400 (human, UniProt Q15109 23-331); test: competition ELISA on coated hRAGE (1-331); competitor biotinylated m11E6 at 0.3 µg/ml
T2 construct: also called sRAGE [RAGE (1-331)]; RAGE (antigen of the Biacore runs)
T2 sequence (Q15109 23-331): as the sequence (chain, as listed by the source limits assumed) above
Description: ELISA plates (Costar 3369) were coated overnight at 4° C. with 50 μl/well of 2 μg/ml hRAGE (1-331) in 0.2 M sodium carbonate-bicarbonate buffer, pH 9.4, washed with Wash Buffer (PBS containing 0.1% Tween 20), and blocked for 1 hr at room temperature with 200 pd/well of 2% nonfat dry milk in PBS. […] After incubating the plates for 1 hr at room temperature, and washing with Wash Buffer, bound antibodies were detected using 100 μl/well of 1:10,000 dilution of HRP-conjugated streptavidin (Fitzgerald) in ELISA buffer. After incubating for 1 hr at room temperature, and washing with Wash Buffer, color development was performed by adding 100 μl/well of TMB Buffer (Zymed). After incubating for 15 min at room temperature, color development was stopped by adding 50 μl/well of IN hydrochloric acid. Absorbance was read at 490 nm.

[3] = target: T2, hRAGE (1-331) / human sRAGE 1-331, V#400; test: Biacore SPR, mAb captured via anti-human Fc, sRAGE (1-331) injected 30-0.12 nM, PBS-P buffer, 1:1 fit
Description: Biacore 2000 and Biacore T100 instruments were used to measure anti-RAGE mAb binding kinetics. The assay format for mAb affinity analysis was Fc-based capture via immobilized anti-Fc antibodies. A standard amine coupling protocol was employed to immobilize Fc-specific IgG via primary amines to the carboxy-methyl (CM) dextran surface of CM5 sensorchips (Biacore). For the study of mouse anti-RAGE mAbs, anti-mouse Fc (Biacore, anti-mouse, BR-1005-14) was used as the immobilized capture reagent and for the study of humanized anti-RAGE mAbs, anti-human Fc (Pierce 31125) was used as the immobilized capture reagent. An automated protocol, available on the Biacore 2000 and Biacore T100, was used to immobilize 8000-10000 RU of capture reagent in all 4 flowcells of the sensorchip. Briefly, the CM-dextran surfaces were activated by freshly prepared 1:1 50 mM N-hydroxysuccinimide (NHS):200 mM 3-(N,N-dimethylamino) propyl-N-ethylcarbodiimide (EDC). Then the anti-Fc IgG capture reagent (20 ug/ml in 10 mM sodium acetate, pH4.5) was applied to the surface followed by deactivation of the surface and blocking of the residual reactive sites with 1M ethanolamine (pH 8.5).
The running buffer employed was PBS-P [1×PBS (Sigma P3813), pH 7.4, 0.005% P20 surfactant (Biacore)] for the humanized antibodies. Each experimental cycle consisted of the following steps: 1) anti-RAGE mAbs were captured in flowcells 2, 3 or 4 to a level of 50-200 RU (depending on the antigen). All measurements were referenced against flowcell 1 which had no captured anti-RAGE mAb. 2) Antigen was injected through all 4 flowcells, 240 ul at 80 ul/min. After the antigen injection, dissociation was monitored for 600 seconds at 80 ul/min. 3) the anti-Fc capture surface was regenerated with low pH glycine. For kinetic determinations, antigen injections were a 3 fold dilution series from either 30 nM-0.12 nM (for sRAGE [RAGE (1-331)] and buffer only in randomized duplicates.
Data were processed using either Biacore evaluation software or Scrubber 2.0 software (BioLogic Software). Briefly, the data were double referenced by first, subtracting the signal from the reference cell and second, by subtracting the signal from buffer-only injections.

[4] = target: T1, recombinant human RAGE (plate coat of …); test: competition ELISA on plates coated with recombinant human RAGE (2 µg/mL); competitor: biotinylated hybridoma-derived 7F9 (7F9-biotin), streptavidin-HRP, OD 450 nm; the unit comes from the axis 'Log MAbs (M)'
Description: as §1

| IC50 [2] [nM] | Binder | other results |
| --- | --- | --- |
| – | 11E6-recombinant (antibody, V domains shown, also called recombinant chimeric anti-human RAGE monoclonal antibody 11E6 (human IgG1/kappa)) VH: QIQLVQSGPELKKPGETVKISCKASGYTFTNFGMNWVKQAPGKGLKWMGYINTNTGESIYSEEFKGRFAFSLETSASTAYLQINNLKNEDTATYFCARSRMVTAYGMDYWGQGTSVTVSS VL: DIVMTQSQKFMSTSVGDRVSITCKASQNVGTAVAWYQQRPGQSPKLLIFSASNRYTGVPDRFTGSGSGTDFTLTLSNMQPEDLADYFCQQYSSYPLTFGVGTKLELKR | EC50 [1]: 64.7 nM |
| 19.7 | humanized anti-RAGE antibody h11E6.1 (antibody, V domains shown, Full-length humanized antibody transiently produced in 293-6E cells) VH: EVQLVQSGSELKKPGASVKVSCKASGYTFTNFGMNWVRQAPGQGLEWMGYINTNTGESIYSEEFKGRFVFSLDTSVSTAYLQICSLKAEDTAVYYCARSRMVTAYGMDYWGQGTTVTVSS VL: DIQMTQSPSSLSASVGDRVTITCKASQNVGTAVAWYQQKPGKAPKLLIYSASNRYTGVPSRFSGSGSGTDFTLTISSLQPEDFATYYCQQYSSYPLTFGQGTKLEIKR | – |
| 16.8 | humanized anti-RAGE antibody h11E6.13 (antibody, V domains shown, Full-length humanized antibody transiently produced in 293-6E cells) VH: EIQLVQSGAEVKKPGASVKVSCKASGYTFTNFGMNWVRQAPGQGLEWMGYINTNTGESIYSEEFKGRFTFTLDTSTSTAYMELSSLRSEDTAVYFCARSRMVTAYGMDYWGQGTSVTVSS VL: DIQMTQSPSSLSASVGDRVTITCKASQNVGTAVAWYQQKPGKAPKLLIYSASNRYTGVPSRFSGSGSGTDFTLTISSLQPEDFATYYCQQYSSYPLTFGQGTKLEIKR | – |
| 18.8 | humanized anti-RAGE antibody h11E6.3 (antibody, V domains shown, Full-length humanized antibody transiently produced in 293-6E cells) VH: EVQLVQSGSELKKPGASVKVSCKASGYTFTNFGMNWVRQAPGQGLEWMGYINTNTGESIYSEEFKGRFVFSLDTSVSTAYLQICSLKAEDTAVYYCARSRMVTAYGMDYWGQGTTVTVSS VL: EIVMTQSPATLSLSPGERATLSCKASQNVGTAVAWYQQKPGQAPRLLIYSASNRYTGIPARFSGSGSGTDFTLTISSLQSEDFAVYYCQQYSSYPLTFGQGTKLEIKR | – |
| 17.9 | humanized anti-RAGE antibody h11E6.9 (antibody, V domains shown, Full-length humanized antibody transiently produced in 293-6E cells) VH: EVQLVQSGAEVKKPGASVKVSCKASGYTFTNFGMNWVRQAPGQGLEWMGYINTNTGESIYSEEFKGRVTMTRDTSTSTAYMELSSLRSEDTAVYYCARSRMVTAYGMDYWGQGTSVTVSS VL: DIQMTQSPSSLSASVGDRVTITCKASQNVGTAVAWYQQKPGKAPKLLIYSASNRYTGVPSRFSGSGSGTDFTLTISSLQPEDFATYYCQQYSSYPLTFGQGTKLEIKR | – |
| 16.1 | humanized anti-RAGE antibody h11E6.5 (antibody, V domains shown, Full-length humanized antibody transiently produced in 293-6E cells) VH: EIQLVQSGSELKKPGASVKVSCKASGYTFTNFGMNWVRQAPGQGLEWMGYINTNTGESIYSEEFKGRFVFSLDTSVSTAYLQICSLKAEDTAVYFCARSRMVTAYGMDYWGQGTTVTVSS VL: DIQMTQSPSSLSASVGDRVTITCKASQNVGTAVAWYQQKPGKAPKLLIYSASNRYTGVPSRFSGSGSGTDFTLTISSLQPEDFATYYCQQYSSYPLTFGQGTKLEIKR | – |
| 10.8 | humanized anti-RAGE antibody h11E6.8 (antibody, V domains shown, Full-length humanized antibody transiently produced in 293-6E cells) VH: EIQLVQSGSELKKPGASVKVSCKASGYTFTNFGMNWVRQAPGQGLEWMGYINTNTGESIYSEEFKGRFVFSLDTSVSTAYLQICSLKAEDTAVYFCARSRMVTAYGMDYWGQGTTVTVSS VL: EIVMTQSPATLSLSPGERATLSCKASQNVGTAVAWYQQKPGQSPRLLIFSASNRYTGVPARFSGSGSGTDFTLTISSLQSEDFAVYFCQQYSSYPLTFGQGTKLEIKR | Kd [3]: 0.033 nM; koff [3]: 0.00084 s⁻¹; kon [3]: 2.5e+07 M⁻¹ s⁻¹ |
| 15.5 | humanized anti-RAGE antibody h11E6.7 (antibody, V domains shown, Full-length humanized antibody transiently produced in 293-6E cells) VH: EIQLVQSGSELKKPGASVKVSCKASGYTFTNFGMNWVRQAPGQGLEWMGYINTNTGESIYSEEFKGRFVFSLDTSVSTAYLQICSLKAEDTAVYFCARSRMVTAYGMDYWGQGTTVTVSS VL: EIVMTQSPATLSLSPGERATLSCKASQNVGTAVAWYQQKPGQAPRLLIYSASNRYTGIPARFSGSGSGTDFTLTISSLQSEDFAVYYCQQYSSYPLTFGQGTKLEIKR | – |
| 14.1 | humanized anti-RAGE antibody h11E6.4 (antibody, V domains shown, Full-length humanized antibody transiently produced in 293-6E cells) VH: EVQLVQSGSELKKPGASVKVSCKASGYTFTNFGMNWVRQAPGQGLEWMGYINTNTGESIYSEEFKGRFVFSLDTSVSTAYLQICSLKAEDTAVYYCARSRMVTAYGMDYWGQGTTVTVSS VL: EIVMTQSPATLSLSPGERATLSCKASQNVGTAVAWYQQKPGQSPRLLIFSASNRYTGVPARFSGSGSGTDFTLTISSLQSEDFAVYFCQQYSSYPLTFGQGTKLEIKR | – |
| – | 7F9-recombinant (antibody, V domains shown, also called recombinant chimeric anti-human RAGE monoclonal antibody 7F9 (human IgG1/kappa)) VH: EEKLEESGGGLVQLGGSMKISCVASGFTLSNYWMDWVRQSPEKGLEWIAEIRLKSNYYSTHYAESVKGRFSISRDDSKGSVSLQMDNLTAEDTGIYFCARNAYWYFDVWGTGTTVTVSS VL: DIVMTQSHKFMSTSVGDRVSATCKASQDVGTSVAWYQQKLGQSPKLLIYWTSTRHTGVPDRFTGSGSGTDFTLTISNVQSEDLADYFCQQYNNYPLTFGDGTKLELKR | EC50 [4]: 108 nM |
| 19.9 | humanized anti-RAGE antibody h11E6.11 (antibody, V domains shown, Full-length humanized antibody transiently produced in 293-6E cells) VH: EVQLVQSGAEVKKPGASVKVSCKASGYTFTNFGMNWVRQAPGQGLEWMGYINTNTGESIYSEEFKGRVTMTRDTSTSTAYMELSSLRSEDTAVYYCARSRMVTAYGMDYWGQGTSVTVSS VL: EIVMTQSPATLSLSPGERATLSCKASQNVGTAVAWYQQKPGQAPRLLIYSASNRYTGIPARFSGSGSGTDFTLTISSLQSEDFAVYYCQQYSSYPLTFGQGTKLEIKR | – |
| 9.2 | humanized anti-RAGE antibody h11E6.16 (antibody, V domains shown, Full-length humanized antibody transiently produced in 293-6E cells) VH: EIQLVQSGAEVKKPGASVKVSCKASGYTFTNFGMNWVRQAPGQGLEWMGYINTNTGESIYSEEFKGRFTFTLDTSTSTAYMELSSLRSEDTAVYFCARSRMVTAYGMDYWGQGTSVTVSS VL: EIVMTQSPATLSLSPGERATLSCKASQNVGTAVAWYQQKPGQSPRLLIFSASNRYTGVPARFSGSGSGTDFTLTISSLQSEDFAVYFCQQYSSYPLTFGQGTKLEIKR | Kd [3]: 0.05 nM; koff [3]: 0.0014 s⁻¹; kon [3]: 2.8e+07 M⁻¹ s⁻¹ |
| 14 | humanized anti-RAGE antibody h11E6.15 (antibody, V domains shown, Full-length humanized antibody transiently produced in 293-6E cells) VH: EIQLVQSGAEVKKPGASVKVSCKASGYTFTNFGMNWVRQAPGQGLEWMGYINTNTGESIYSEEFKGRFTFTLDTSTSTAYMELSSLRSEDTAVYFCARSRMVTAYGMDYWGQGTSVTVSS VL: EIVMTQSPATLSLSPGERATLSCKASQNVGTAVAWYQQKPGQAPRLLIYSASNRYTGIPARFSGSGSGTDFTLTISSLQSEDFAVYYCQQYSSYPLTFGQGTKLEIKR | – |
| 11.3 | humanized anti-RAGE antibody h11E6.12 (antibody, V domains shown, Full-length humanized antibody transiently produced in 293-6E cells) VH: EVQLVQSGAEVKKPGASVKVSCKASGYTFTNFGMNWVRQAPGQGLEWMGYINTNTGESIYSEEFKGRVTMTRDTSTSTAYMELSSLRSEDTAVYYCARSRMVTAYGMDYWGQGTSVTVSS VL: EIVMTQSPATLSLSPGERATLSCKASQNVGTAVAWYQQKPGQSPRLLIFSASNRYTGVPARFSGSGSGTDFTLTISSLQSEDFAVYFCQQYSSYPLTFGQGTKLEIKR | Kd [3]: 0.083 nM; koff [3]: 0.0017 s⁻¹; kon [3]: 2e+07 M⁻¹ s⁻¹ |
